Measured values taken from paper PMC11092868, “Mapping Novel Frataxin Mitochondrial Networks Through Protein- Protein Interactions” (Research Square, 2024).

B1: Peroxiredoxin 3, endogenous human (natural protein, UniProt P30048 62-256, looked up)
chain: APAVTQHAPYFKGTAVVNGEFKDLSLDDFKGKYLVLFFYPLDFTFVCPTEIVAFSDKANEFHDVNCEVVAVSVDSHFSHLAWINTPRKNGGLGHMNIALLSDLTKQISRDYGVLLEGSGLALRGLFIIDPNGVIKHLSVNDLPVGRSVEETLRLVKAFQYVETHGEVCPANWTPDSPTIKPSPAASKEYFQKVNQ
notes: Peroxiredoxin 3, mitochondrial, human; also called Prdx3; PRDX3; source: endogenous: A549 cells (BioID); human lymphoblast lysate fractions (co-IP); human dermal fibroblast lysate (redox blot)
B2: Peroxiredoxin 3, endogenous mouse (natural protein, UniProt P20108 63-257, looked up)
chain: TPAVTQHAPYFKGTAVVNGEFKELSLDDFKGKYLVLFFYPLDFTFVCPTEIVAFSDKANEFHDVNCEVVAVSVDSHFSHLAWINTPRKNGGLGHMNITLLSDITKQISRDYGVLLESAGIALRGLFIIDPNGVVKHLSVNDLPVGRSVEETLRLVKAFQFVETHGEVCPANWTPESPTIKPSPTASKEYFEKVHQ
notes: Peroxiredoxin 3, mitochondrial, mouse; also called Prdx3; source: endogenous, mouse cerebellum and heart lysates

Target: the molecule itself
Assay: non-reducing SDS-PAGE and immunoblot after NEM alkylation; lysis in alkylation buffer with 100 mM N-ethylmaleimide and 10 ug/mL catalase; oxidized dimers against reduced monomers; with or without beta-mercaptoethanol in Laemmli buffer

| Protein | stoichiometry N |
| --- | --- |
| B1 | 2 |
| B2 | 2 |
